Data from patent US10308692B2, “Variants of GAL2 transporter and their uses” (Johann Wolfgang Goethe-Universität Frankfurt, priority 2014, dated 2019).

How the values were obtained:
Format in all cases: cell-based, Saccharomyces cerevisiae
AFY10 [1] = experiment: Growth test in liquid media and fermentation; conditions: for xylose concentration of the supernatant decreased during the fermentation to: HPLC
Description: The strain AFY10, which was transformed with YEp181_pHXT7-opt.XI_Clos and p426H7-GAL2_wt (WT) or p426H7-GAL2_ep3.1 (ep3.1) or p426-GAL2_N376Y+M435I (M435I), was incubated in 150 ml SCE-ura-leu+G418. This was the preculture which was used to start the fermentation with an OD600 of 0.6 in 30 ml SC-ura-leu with 0.6% xylose (A) or with 0.6% xylose with 2% glucose (B). The cultures were incubated at 180 rpm and 30° for seven days. Samples were taken for growth measurements as well as metabolite analysis.
For analysis of metabolites cell-free samples (5-10 min, 4° C., 16000×g) were mixed with 1/9 volumes of 50% (w/v) 5-sulfosalicylic acid and centrifuged (5-10 min, 4° C., 16000×g). The supernatant was analyzed in an UHPLC+ system by Thermo Scientific (Dionex UltiMate 3000) equipped with a HyperREZ XP Carbohydrate H^+8 μm column and a refractive index detector (Thermo Shodex RI-101). Separation was carried out at column temperature of 65° C. with 5 mM sulfuric acid as mobiles phase with a flow rate of 0.6 ml/min. Chromeleon 6.80 software was used to control the system and to analyze the data. Five standards (mixtures of D-glucose, D-xylose, xylitol, acetate, glycerol and ethanol with concentrations of 0.01-3% (w/v)) were analyzed for quantification of the different compounds.
To investigate the growth difference and the xylose consumption of the mutants in comparison to the wild type and the error prone mutant, an anaerobic growth test in liquid media was carried out. For this purpose AFY10 cells were co-transformed with the vector with the respective GAL2 sequence and YEp181_pHXT7-opt.XI_Clos and inoculated in SCE-ura-leu+G418 to have an OD600 of 0.6 in 30 ml SC-ura-leu with 0.6% xylose or with 0.6% xylose with 2% glucose. The OD600 was measured regularly during five days, the growth rate μ was determined and the metabolites of the samples were examined, whereby the samples were diluted 1:5 for this reason.

AFY10 [2] = experiment: Serial dilution drop test on xylose and xylose-glucose media; conditions: for growth on low xylose: 0.2% (2 g/l) xylose
Description: The transformants were cultivated in 5 ml SCE-ura-leu with 2% ethanol at 30°, washed with water and adjusted to an OD600 of 1. Thereof it followed a serial dilution. 5 μl were dropped onto the respective media and it was incubated for five days at 30°. As a control for the dilution SCE-ura-leu with 2% ethanol was taken. The cells of the mutated transporters were dropped onto SCX-ura-leu with 0.2% and 2% D-xylose, as well as SC-ura-leu with 1% D-xylose with 4% D-glucose and SC-ura-leu with 0.2% D-xylose and 2% D-glucose to test their functionality. Furthermore the wild type and Gal2_ep3.1 were used for comparison.
FIG. 5: Drop test of Gal2_M435I in AFY10 after five days at 30°. Several dilutions were dropped from left to right (undiluted, 1:10, 1:100, 1:1000).
FIG. 6: Drop test of Gal2_N376F, N376F+M435I and N376Y+M435I in AFY10 after five days at 30°. Several dilutions were dropped from left to right (undiluted, 1:10, 1:100, 1:1000). But on 20 g/l xylose the order was different (undiluted, 1:100, 1:1000, 1:10).
For easy comparison of growth of different S. cerevisiae strains under various growth conditions a serial dilution spot assay was performed. Cells were grown in liquid culture to exponential phase in appropriate medium, collected by centrifugation (2000×g, 2 min), washed twice with sterile water and then resuspended to an OD600 of 1.0 in selective medium without carbon source. From this cell suspension a ten-fold serial dilution was prepared in selective medium (four dilution steps). 6 μl of each cell suspension were spotted on plates of the media to be examined and allowed to dry. Plates were incubated at 30° C.
To characterize the different constructs which all were verified by sequencing they were transformed together with vector YEp181_pHXT7-optXI_Clos into competent AFY10 cells and drop tests were performed.

EBY.VW4000 = experiment: Xylose uptake assay with radioactively labelled xylose; conditions: for Vmax: xylose uptake, Michaelis-Menten fit (GraphPad Prism), three replicates, figures give velocity in nmol xylose per minute per milligram cell dry mass
From the text: FIG. 7: Xylose uptake assay of Gal2_N376Y, N376Y+M435I and Gal2 wild type in EBY.VW4000 (three independent replicates). The uptake velocity is shown in nmol xylose per minute per milligram cell dry mass.
FIG. 8: Xylose uptake assay of Gal2_N376F, N376F+M435I and Gal2 wild type in EBY.VW4000 (three independent replicates). The uptake velocity is shown in nmol xylose per minute per milligram cell dray mass.
Sugar uptake assays were done as described by Bisson et al. (Bisson and Fraenkel, 1983) with modifications according to Walsh et al. (Walsh et al., 1994).
Transformants of strain EBY.VW4000 were grown in selective YEPE to an OD of 1.1-1.6, harvested by centrifugation and washed twice in ice-cold uptake-buffer (RT, 3 min, 3000×g). Cells were kept on ice from here on. The cell pellet was resuspended in ice-cold uptake-buffer to a concentration of 60 mgww/ml and aliquoted to 110 μl. One cell suspension aliquot and one sugar solution were incubated in a water bath at 30° C. for 4-5 min. 100 μl of the cell suspension were pipetted to the sugar solution (50 μl), mixed briefly by pipetting and incubated for 5 (D-[U-^14C]-glucose) or 20 sec (D-[1-^14C]-xylose). The uptake reaction was stopped by transferring 100 μl of the mixture into 10 ml ice-cold quenching-buffer, which was immediately filtered through a Durapore membrane filter (0.22 μm pore size, Millipore). The filter was washed twice with 10 ml ice-cold quenching-buffer, transferred to a scintillation vial containing 4 ml scintillation cocktail (Rotiszint eco plus, Roth) and shaken thoroughly. Additionally to this filter sample (cpmfilter), 10 μl of each reaction were transferred directly to a scintillation vial with 4 ml scintillation cocktail for determination of the total counts in the reaction (cpmtotal). To determine a value for sugar that is bound unspecifically to the cell surface or the filter (cpmblank) a few samples of 33,3 μl sugar solution and 66,6 μl cell suspension were mixed in 10 ml icecold quenching buffer and treated as described above. Radioactivity of all vials was analysed in an Wallac 1409 liquid scintillation counter.
Stocksolutions of 2M, 500 mM or 20 mM glucose or xylose (in H2O) were used to prepare the sugar solutions for the assays (threefold of the desired concentration in the uptake reaction (S, substrate concentration), 50 μl aliquots). Uptake was measured at sugar concentrations 0.2, 1, 5, 25 and 100 mM for glucose and 1, 5, 25, 66, 100, 200 and 500 mM for xylose. Inhibition of xylose uptake by glucose was measured at 25, 66 and 100 mM xylose with additional 25 and 100 mM unlabelled glucose. Sugar solutions contained 0.135 to 0.608 μCi of D-[U-^14C]-glucose (290-300 mCi/mmol) or D-[1-^14C]-xylose (55 mCi/mmol) (American Radiolabeled Chemicals Inc., St. Louis, Mo., USA).
The amount of sugar (Asugar in nmol) taken up during the incubation time (t, in seconds) at a certain sugar concentration (S, in mM): Asugar=((cpmsample−cpmblank)/(cpmtotal·10))·S·100 μl
Transport velocity (in nmol·min^−1·mgww^−1) calculated per milligrams of cell (m, in mgww): V=(Asugar·60 s)/(t·m)
Calculation of Km (Michaelis constant), Vmax (maximal initial uptake velocity) and Ki (inhibitor constant for competitive inhibition) was done by nonlinear regression analysis and global curve fitting in Prism 5 (GraphPad Software, Inc.) with values of three independent measurements.
Xylose uptake of Gal2_N376F, N376F+M435I, N376Y und N376Y+M435I was characterized with a sugar uptake assay. The relevant plasmids were transformed in strain EBY.VW4000. Cells were cultivated in SCM-ura until they reached the exponential growth phase (OD600˜0.6). Then cells were harvested, concentrated to the same OD600 (OD600 35-40), separated into different aliquots and stored on ice.
Three uptake assays (in tripicates) were performed with different concentrations of radioactively labelled xylose. Data were collected and fittet with GraphPad Prism according to Michaelis Menten (FIGS. 7 and 8).

[3] = start 0.6% xylose with 2% glucose

Row | Molecule | growth rate (AFY10 [1]; 0.6% xylose) [h⁻¹] | growth rate (AFY10 [1]; 0.6% xylose with 2% glucose) [h⁻¹] | xylose concentration of the supernatant decreased during the fermentation to (AFY10 [1]; [3]) [%] | xylose concentration of the supernatant decreased during the fermentation to (AFY10 [1]; start 0.6% xylose) [%] | growth on low xylose (AFY10 [2]) | growth on low xylose with glucose (AFY10 [2]; 0.2% xylose with 2% glucose) | growth on xylose with glucose (AFY10 [2]; 1% xylose with 4% glucose (10 g/l xylose plus 40 g/l glucose)) | growth on high xylose (AFY10 [2]; 2% (20 g/l) xylose, compared within the same drop test) | xylose uptake rate compared to wild type (EBY.VW4000; FIGS. 7 and 8) | Vmax (EBY.VW4000) | OD600 tend (AFY10 [1]; [Xyl+Glu]: 0.6% xylose with 2% glucose) | OD600 tend (AFY10 [1]; [Xyl]: 0.6% xylose without glucose)
1 | N376Y + M435I: Gal2 variant with amino acid substitutions N376Y and M435I (protein, UniProt P13181 1-574, looked up, variant N376Y M435I) Galactose transporter: MAVEENNMPVVSQQPQAGEDVISSLSKDSHLSAQSQKYSNDELKAGESGSEGSQSVPIEIPKKPMSEYVTVSLLCLCVAFGGFMFGWDTGTISGFVVQTDFLRRFGMKHKDGTHYLSNVRTGLIVAIFNIGCAFGGIILSKGGDMYGRKKGLSIVVSVYIVGIIIQIASINKWYQYFIGRIISGLGVGGIAVLCPMLISEIAPKHLRGTLVSCYQLMITAGIFLGYCTNYGTKSYSNSVQWRVPLGLCFAWSLFMIGALTLVPESPRYLCEVNKVEDAKRSIAKSNKVSPEDPAVQAELDLIMAGIEAEKLAGNASWGELFSTKTKVFQRLLMGVFVQMFQQLTGNNYFFYYGTVIFKSVGLDDSFETSIVIGVVYFASTFFSLWTVENLGHRKCLLLGAATMMACMVIYASVGVTRLYPHGKSQPSSKGAGNCIIVFTCFYIFCYATTWAPVAWVITAESFPLRVKSKCMALASASNWVWGFLIAFFTPFITSAINFYYGYVFMGCLVAMFFYVFFFVPETKGLSLEEIQELWEEGVLPWKSEGWIPSSRRGNNYDLEDLQHDDKPWYKAMLE | 0.014 | 0.015 | 0.37 | 0.35 | better growth | better growth | best growth | best growth | strongly improved | 99.61 | – | –
2 | Gal2 WT: wild-type protein Gal2 of S. cerevisiae CEN.PK2-1C, SEQ ID NO: 1, 574 amino acids, galactose transporter (protein, UniProt P13181 1-574, looked up) Galactose transporter: MAVEENNMPVVSQQPQAGEDVISSLSKDSHLSAQSQKYSNDELKAGESGSEGSQSVPIEIPKKPMSEYVTVSLLCLCVAFGGFMFGWDTGTISGFVVQTDFLRRFGMKHKDGTHYLSNVRTGLIVAIFNIGCAFGGIILSKGGDMYGRKKGLSIVVSVYIVGIIIQIASINKWYQYFIGRIISGLGVGGIAVLCPMLISEIAPKHLRGTLVSCYQLMITAGIFLGYCTNYGTKSYSNSVQWRVPLGLCFAWSLFMIGALTLVPESPRYLCEVNKVEDAKRSIAKSNKVSPEDPAVQAELDLIMAGIEAEKLAGNASWGELFSTKTKVFQRLLMGVFVQMFQQLTGNNYFFYYGTVIFKSVGLDDSFETSIVIGVVNFASTFFSLWTVENLGHRKCLLLGAATMMACMVIYASVGVTRLYPHGKSQPSSKGAGNCMIVFTCFYIFCYATTWAPVAWVITAESFPLRVKSKCMALASASNWVWGFLIAFFTPFITSAINFYYGYVFMGCLVAMFFYVFFFVPETKGLSLEEIQELWEEGVLPWKSEGWIPSSRRGNNYDLEDLQHDDKPWYKAMLE | – | – | 0.53 | – | best growth | – | – | – | – | 63.43 | 0,52 | 0,86
